Biological target: F-actin (actin purified from chicken breast, polymerized and phalloidin-stabilized) (chicken) (UniProt P68139)
Assay: co-sedimentation

Row | stoichiometry N | Substance
1 | 1 | 6xHis-FLNaABD-Q170P (from UniProt P21333 1-278) (domain or fragment)
2 | 1 | 6xHis-FLNaABD-A128V (from UniProt P21333 1-278) (domain or fragment)
3 | 1 | 6xHis-FLNaABD-E254K (domain or fragment)
4 | 1 | 6xHis-FLNaABD-wt (human filamin A actin-binding domain, wild type) (from UniProt P21333 1-278) (domain or fragment)

From paper PMC6173970
